These results are taken from patent US20240409645A1 (DUALYX, published 2024).

Substitutions are numbered along the chain they refer to.

The labels stand for the following.
T1: cynomolgus monkey IL-2Rβ/CD122 subunit (cynomolgus monkey, UniProt Q38J85 27-239, limits assumed)
T1 construct: also called Cyno IL-2R subunit
T1 sequence (looked up): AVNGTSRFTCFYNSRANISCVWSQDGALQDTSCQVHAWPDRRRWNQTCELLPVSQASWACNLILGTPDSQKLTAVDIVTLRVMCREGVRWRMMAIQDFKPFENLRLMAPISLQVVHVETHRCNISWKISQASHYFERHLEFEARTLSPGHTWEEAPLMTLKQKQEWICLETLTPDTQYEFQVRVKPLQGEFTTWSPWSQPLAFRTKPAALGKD

T2: human interleukin-2 receptor β-chain (IL-2Rβ; CD122), recombinant protein (human, UniProt P14784 27-240)
T2 construct: also called human IL-2R subunit CD122
T2 sequence: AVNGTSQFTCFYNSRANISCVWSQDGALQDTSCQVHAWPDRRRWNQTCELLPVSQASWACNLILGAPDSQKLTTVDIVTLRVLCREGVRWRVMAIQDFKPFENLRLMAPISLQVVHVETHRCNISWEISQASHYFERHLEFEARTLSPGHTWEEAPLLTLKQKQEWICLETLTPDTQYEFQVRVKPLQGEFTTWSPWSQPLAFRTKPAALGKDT

T3: cynomolgus monkey IL-2Rα/CD25 subunit (cynomolgus monkey, UniProt H6WS54 22-213)
T3 construct: also called Cyno IL-2R subunit
T3 sequence: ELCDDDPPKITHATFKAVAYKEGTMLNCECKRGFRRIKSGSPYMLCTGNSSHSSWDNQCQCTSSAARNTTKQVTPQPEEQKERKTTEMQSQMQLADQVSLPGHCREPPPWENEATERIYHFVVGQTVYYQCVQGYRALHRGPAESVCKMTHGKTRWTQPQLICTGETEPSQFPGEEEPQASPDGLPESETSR

T4: human interleukin-2 receptor α-chain (IL-2Rα; CD25), recombinant protein (human, UniProt P01589 22-240, limits assumed)
T4 construct: also called huIL2R-a; hIL-2RA
T4 sequence: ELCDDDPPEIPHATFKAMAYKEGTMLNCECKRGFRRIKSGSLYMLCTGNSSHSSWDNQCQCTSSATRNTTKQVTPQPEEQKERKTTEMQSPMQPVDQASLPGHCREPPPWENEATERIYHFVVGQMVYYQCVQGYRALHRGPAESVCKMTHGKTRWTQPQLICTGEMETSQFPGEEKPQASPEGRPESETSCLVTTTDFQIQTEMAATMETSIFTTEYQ

B1: 193-MP02F12 VHH-hFc, monospecific bivalent (Fc fusion)
chain: QLQLVESGGGLVQTGTSLRLSCAASGHTSRINAMGWFRQFPGKEREFVAAISRNGGSTVYVDSVKGRFTISRDNAKSTVYLQMNSLKPEDTAVYYCTATDAVGWTTRWMTADFGFWGQGTQVTVSS
notes: IgG1 Fc LALA-PG; not shown: human IgG1 CH2 and CH3 domains (Fc)
B2: 166-MP02H08 VHH-hFc, monospecific bivalent (Fc fusion)
chain: EVQLVESGGGLVQAGDSLRISCAASGRIFSNYAMGWFRQAPGKETEFVAGITHLTSTTHYADSVKGRFTISRDNAKNTMHLQMNNLKPEDTALYYCAADRNIKITADWSYWGQGTQVTVAS
notes: as for B1
B3: 168-MP02B09 VHH-hFc, monospecific bivalent (Fc fusion)
chain: EVQLVESGGGLVQAGGSLRLSCAASGRTFSTTEMGWFRQAPGKEREFVAAITWTGRGTMYAESVEGRFTISRENAKNMVYLQMNSLKPEDTAIYYCAAARRGRAAVRSEGGYDFWGQGTQVTVSS
notes: as for B1
B4: 189-MP02B12 VHH-hFc, monospecific bivalent (Fc fusion)
chain: QVQLVESGGGLVQAGGSLRLSCAASGRADSNAIMAWFRQAPGKEREFIVAVTYSGMPTYQDDSVQGRFTASRDNAKNTVYLQMNSLKPEDTAVYYCAARMYSASTYYGDYDYWGQGTQVTVSS
notes: as for B1
B5: 297-MP06A08 VHH-hFc, monospecific bivalent (Fc fusion)
chain: EVQLVESGGGLVQAGESLRLSCAASGQYFSTYSMAWFRRTPGKEREFVTIISESGGIKEYVDSVKGRFTVSRDNAKNTVYLQMNSLKPEDTAVYYCAAARDWFARNEYQYDYWGQGTQVTVSS
notes: as for B1
B6: 161-MP02C08 VHH-hFc, monospecific bivalent (Fc fusion)
chain: EVQLVESGGGLVQAGGSLRLSCAASGSTFSRQPMYWFRQAPGKEREFVAAITWSGRGTLYADSVEGRFTISRDNAKNTVYLQMNSLRPDDTAAYYCAAGPYGDAAYRHGRIDSWGQGTQVTVSS
notes: as for B1
B7: 184-MP02E11 VHH-hFc, monospecific bivalent (Fc fusion)
chain: QVQLQESGGGLVQAGGSLRLSCAASGRTFSNYVMAWFRQAPGKEREFVGAITQTGRGTFYADSVEGRFTISRINDKNTVYLQMNSLKPEDTAVYYCSAPRSGRAGTRNQMDYEYWGQGTQVTVSS
notes: as for B1
B8: 126-MP02A03 VHH-hFc, monospecific bivalent (Fc fusion)
chain: QVQLVESGGGLVQPGGSLRLSCAASGFTFSNYAMSWVRQAPGKGLEWVSSITGAGRGTYYAESVKGRFTISRDNDKNTLYLQMNSLKPEDTAVYYCAKYDSSTFYPPTPARGIADRGQGTRVTVSS
notes: as for B1
B9: 1-MP01H01 VHH-hFc, monospecific bivalent (Fc fusion)
chain: EVQLVESGGGLVQAGGSLRLSCAASGRTFRTHNMGWFRRAPGKEREFVAAISWNVDNTLYADSVKGRFTISRDNGRNMVYLQMNSLKPEDTAVYYCAADNIPLSSDVAATATEYDYWGQGTQVTVSS
notes: as for B1
B10: 4-MP01F04 VHH-hFc, monospecific bivalent (Fc fusion)
chain: B9 chain with E1Q, R27G, H32R, I51V, T58K, V107M, A108R, A109P
notes: as for B1
B11: 10-MP05F03 VHH-hFc, monospecific bivalent (Fc fusion)
chain: QVQLVESGGGLVQAGGSLRLSCAASGIPFDNYAMGWFRQAPGKEREFVAARDLEGIITRYGDSVKGRFTISRGNAKNTVFLQMNSLKPEDTAVYYCAARDGGVVAGSRSSAQYNYWGQGTQVTVSS
notes: IgG1 Fc LALA-PG; also called anti-IL-2Rα Ab 10; anti-IL-2Rα VHH 10; not shown: human IgG1 CH2 and CH3 domains (Fc)
B12: 6-MP01G05 VHH-hFc, monospecific bivalent (Fc fusion)
chain: QVQLQESGGGLVQAGGSLRLSCAASGRTFSSYAMGWFRQAPGKEREFVAVISWNVDNTEYTDSVKGRFTISRDNDKNMVYLQMNSLKPEDTAVYYCAADSIPLSSDMSPTATEYGYWGQGTQVTVSS
notes: as for B1
B13: 9-MP05G01 VHH-hFc, monospecific bivalent (Fc fusion)
chain: EVQLVESGGGLVQAGGSLRLSCAASGGSIYTYNMGWFRQAPGKEREFVAGTLWSGGDSVYADFAKGRFTLSRENAKNTLYLQMNSLKPEDTATYYCAIDPLSLTSDWRVDELSSWGKGTLVTVSS
notes: as for B1
B14: 5-MP01F05 VHH-hFc, monospecific bivalent (Fc fusion)
chain: EVQLVESGGGLVQAGGSLRLSCAASIRAFTTWSMAWFRQAPGKEREYVARINVSGSVTYYADFVKGRFTISRDNAKKTMYLEMNNLKPEDTALYYCAADRTGVGTNDYNYWGQGTQVTVSS
notes: as for B1
B15: 7-MP01G08 VHH-hFc, monospecific bivalent (Fc fusion)
chain: EVQLVESGGGLVQAGGSLRLSCAASGRAFSMYNMGWFRQAPGKEREFVAATGWSGANTPYADSVKGRFTISRDNTQNTVYLQMNSLKPEDTATYYCAADSIRLRSDVTRIPLEYDYWGQGTQVTVSS
notes: IgG1 Fc LALA-PG; also called 07-MP01G08; not shown: human IgG1 CH2 and CH3 domains (Fc)
B16: 92-MP05C07 VHH-hFc, monospecific bivalent (Fc fusion)
chain: QVQLVESGGGSVQAGGSLRLSCEASGRTLFSSYGMGWFRQAPGKEREFVGAISRFGTYTSYADPVKDRFTISRDNAKSTVYLQMNNTKPEDTAVYYCAAYTYSGSFYSTVKTHHDEYRYWGQGTQVTVSS
notes: as for B1
B17: 2-MP01A02 VHH-hFc, monospecific bivalent (Fc fusion)
chain: QVQLVESGGGLVQPGGSLRLSCATSGFTFRNNFMSWVRQAPGKGLEWVSTISYGGESTTYAESVKGRFTISRDNAKNTLYLQMNNLKPEDTAVYYCAKATSYDSIRSGSRGQGTQVTVSS
notes: IgG1 Fc LALA-PG; also called anti-IL-2Rα Ab 2; not shown: human IgG1 CH2 and CH3 domains (Fc)
B18: 8-MP01C12 VHH-hFc, monospecific bivalent (Fc fusion)
chain: B17 chain with R30S, W47F, S63A, V93I, D103T, S107G, G108A, S109P
notes: IgG1 Fc LALA-PG; also called anti-IL-2Rα Ab 8; anti-IL-2Rα VHH 8; not shown: human IgG1 CH2 and CH3 domains (Fc)
B19: 3-MP01E03 VHH-hFc, monospecific bivalent (Fc fusion)
chain: QVQLVESGGGLVQAGGSLRLSCTASGRTLSSYSMAWFRQAADKGREFVTAISSSGVVTHVLDSVKGRFTISRDNAKNTVYLQMNSLQPEDTALYFCAGTASSYSTYEANYNYWGQGTLVTVSS
notes: as for B1

A word on the EC50: it is the concentration at which the effect is half-maximal.

One experiment deals with T1, cynomolgus monkey IL-2Rβ/CD122 subunit. The experiment is described as follows: ELISA, bivalent VHH-hFc. As to the method: (§1) Monospecific monovalent and bivalent IL-2Rα-, IL-2Rβ- and IL-2Rγ-specific antibodies that were selected on human IL-2R subunits, were evaluated for their cross-reactivity in an ELISA. Human and cynomolgus monkey receptor subunits (Acrobiosystems, KactusBiosystems) were coated at 1 μg/mL in PBS (pH 7.4) in a Maxisorp plate (Nunc) and incubated overnight at 4° C. The plates were further washed with PBS-Tween pH 7.4 and incubated with 1% cascin/PBS-Tween blocking solution for 1 hour shaking at 400 rpm. Subsequently, the plate was washed three times with PBS-Tween pH 7.4, after which the test antibodies diluted in 0.1% casein/PBS-Tween were added to the plate and incubated for 1 hour. The plate was again washed three times, after which goat anti-human IgG Fc (HRP) detection antibody (abcam) was added to the plate and incubated for 30 min. The colouring reaction was performed with TMB (Sigma-Aldrich) and stopped with 0.5N H₂SO₄.
(§2) Absorbance was measured at 450 nm with the reference wavelength of 620 nm using spectrophotometer. Final analysis and graphic output were performed with GraphPad Prism version 8 (GraphPad Software). The dose-response binding curves were fit to a nonlinear regression model (log (agonist) vs. response with a variable slope (four parameters)).
(In general: An ELISA detects its analyte on a solid surface through an enzyme-linked reagent.)
Molecule B1 returned an EC50 of 0.099 nM.
The same measure, in the same setting: under B2 stands 0.105 nM.
On the same count and under the same terms, under B3 stands 0.127 nM; under B4, 0.066 nM; under B5, 0.09 nM.
Still for that read-out and setting: next, B6: 0.157 nM; B7: 0.074 nM; B8: 0.065 nM.

The target in the next experiment is T2, human interleukin-2 receptor β-chain …. The experiment is described as follows: ELISA, bivalent VHH-hFc. The procedure: as §1, §2
On to B1, for which the EC50 worked out at 0.087 nM.
Still for that read-out and setting: next, B2: 0.085 nM.
The same measure, in the same setting: next, B3: 0.053 nM.
Same read-out and setting: under B4 stands 0.053 nM; under B5, 0.079 nM; under B6, 0.084 nM.
On to B7, for which the EC50 came to 0.059 nM.
For B8, the EC50 was found to be 0.09 nM.

The next experiment concerns the target T3, cynomolgus monkey IL-2Rα/CD25 subunit. In words: ELISA, bivalent VHH-hFc. As to the method: as §1, §2
B9: the response was half-maximal at 0.061 nM (EC50).
For the molecule B10, the EC50 is 0.056 nM.
The same measure, in the same setting: next, B11: 0.06 nM; B12: 0.05 nM; B13: 0.062 nM.
The same measure, in the same setting: next, B14: 0.095 nM; B15: 0.067 nM.
Take B16: the binding result is “no binding”.
Turning to B17, the EC50 turned out to be 0.043 nM.
The same measure, in the same setting: under B18 stands 0.054 nM.
In the case of B19, the EC50 turned out to be 0.106 nM.

The next experiment concerns the target T4, human interleukin-2 receptor α-chain …. The experiment is described as follows: ELISA, bivalent VHH-hFc. As to the method:
as §1, §2
B9: the EC50 turned out to be 0.052 nM.
For the molecule B10, the EC50 stood at 0.053 nM.
Same read-out and setting: under B11 stands 0.061 nM; under B12, 0.056 nM.
In the case of B13, the EC50 was determined as 0.065 nM.
For the molecule B14, the EC50 stood at 0.06 nM.
Same read-out and setting: next, B15: 0.072 nM; B16: 0.047 nM; B17: 0.038 nM.
For the molecule B18, the EC50 worked out at 0.051 nM.
On to B19, for which the EC50 was 0.057 nM.

The next experiment deals with T1, cynomolgus monkey IL-2Rβ/CD122 subunit. In words: ELISA, bivalent; EC50 cyno vs human subunit. The procedure: as §1, §2
Consider B1, for which the Fold change was 1.1 fold.
On the same count and under the same terms, under B2 stands 1.2 fold; under B3, 2.4 fold; under B4, 1.3 fold.
On the same count and under the same terms, next, B5: 1.2 fold; B6: 1.9 fold; B7: 1.3 fold.
Same read-out and setting: next, B8: 0.7 fold.

The target in a further experiment is T3, cynomolgus monkey IL-2Rα/CD25 subunit. In words: ELISA, bivalent; EC50 cyno vs human subunit. The procedure:
as §1, §2
With B9, the Fold change is 1.2 fold.
On the same count and under the same terms, under B10 stands 1.1 fold.
The same measure, in the same setting: under B11 stands 1 fold; under B12, 0.9 fold; under B13, 1 fold.
The same measure, in the same setting: next, B14: 1.6 fold.
In turn, B15 registered a Fold change of 0.9 fold.
In the case of B17, the Fold change came out at 1.1 fold.
In turn, B18 returned a Fold change of 1.1 fold.
For B19, the Fold change stood at 1.9 fold.
